Laboratory results published in patent publication US10501734B2, “Compositions and methods of use thereof for making polypeptides with many instances of nonstandard amino acids” (Yale University, priority 2014, dated 2019).
Substitutions are numbered along the chain they refer to. Numbers in names are those of the source. Read-outs that look alike come from different tables or passages of the source.

Experiments:
GFP(3TAG) = assay type: cell-based, E. coli
ELP(30TAG)-GFP = experiment: ELP expression and purification, yield of purified ELP(30TAG)-GFP; assay type: cell-based, E. coli
Protocol: Before batch expression, starter cultures (2 mL) of 2×YT media supplemented with 30 μg/mL kanamayacin and 20 μg/mL chloramphenicol were inoculated with transformed cells from a fresh agar plate or from stocks stored at −80° C., and incubated overnight at 34° C. while shaking at 250 rpm. Expression cultures (250 ml flasks containing 50 ml of 2×YT media, antibiotics, 0.2% arabinose and 1 mM of the nsAA) were inoculated with 0.5 ml of the starter culture and incubated at 34° C. for 4 h and then reporter protein expression was induced with 60 μg/mL anhydrotetracyclin.
Cells were harvested 24 h after inoculation by centrifugation at 4,000 g for 15 min at 4° C. The cell pellet was resuspended by vortex in ˜1.5 mL PBS buffer and stored at −80° C. or immediately purified. For purification, resuspended pellets were lysed by ultrasonic disruption (9 cycles of 10 s sonication separated by 40 s intervals). Poly(ethyleneimine) (0.2 mL of 10% solution) was added to each lysed suspension before centrifugation at 15,000 g for 3 min to separate cell debris from the soluble cell lysate.
All ELP constructs were purified by a modified Inverse Transition Cycling (ITC) protocol consisting of multiple “hot” and “cold” spins using sodium citrate to trigger the phase transition. Before purification, the soluble cell lysate was incubated for 1-2 min at ˜65° C. to denature native E. coli proteins. For “hot” spins, the ELP phase transition was triggered by adding sodium citrate to the cell lysate or the product of a previous cycle of ITC at a final concentration of ˜0.5 M. The solutions were then centrifuged at 14,000 g for 3 min and the pellets were resuspended in PBS, followed by a 3-5 min “cold” spin performed without addition of sodium citrate to remove denatured contaminant. Additional rounds of ITC were carried out as needed until sufficient purification was achieved.
Protein concentration was calculated by measuring the OD280 of purified protein stocks according to the following extinction coefficients for ELP(30TAG)-GFP.

[1] = chromosomally integrated AARS, pAzF

B1: pAzFRS.1.t1: pAcFRS variant D158V, I159M, L162D, A167Y, R257G, SEQ ID NO: 11 (protein)
chain: MDEFEMIKRNTSEIISEEELREVLKKDEKSALIGFEPSGKIHLGHYLQIKKMIDLQNAGFDIIILLADLHAYLNQKGELDEIRKIGDYNKKVFEAMGLKAKYVYGSEFQLDKDYTLNVYRLALKTTLKRARRSMELIAREDENPKVAEVIYPIMQVNVMHYDGVDVYVGGMEQRKIHMLARELLPKKVVCIHNPVLTGLDGEGKMSSSKGNFIAVDDSPEEIRAKIKKAYCPAGVVEGNPIMMEIAKYFLEYPLTIKGPEKFGGDLTVNSYEELESLFKNKELHPMRLKNAVAEELIKILEPIRKRL
higher GFP(3TAG) production compared with the progenitor enzyme (GFP(3TAG); [1]): ~5.5 fold

B2: pAcFRS.1.t1: pAcFRS variant A167D, R257G, SEQ ID NO: 5 (protein)
chain: MDEFEMIKRNTSEIISEEELREVLKKDEKSALIGFEPSGKIHLGHYLQIKKMIDLQNAGFDIIILLADLHAYLNQKGELDEIRKIGDYNKKVFEAMGLKAKYVYGSEFQLDKDYTLNVYRLALKTTLKRARRSMELIAREDENPKVAEVIYPIMQVNGCHYRGVDVDVGGMEQRKIHMLARELLPKKVVCIHNPVLTGLDGEGKMSSSKGNFIAVDDSPEEIRAKIKKAYCPAGVVEGNPIMEIAKYFLEYPLTIKGPEKFGGDLTVNSYEELESLFKNKELHPMRLKNAVAEELIKILEPIRKRL
higher GFP(3TAG) production compared with the progenitor enzyme (GFP(3TAG); chromosomally integrated AARS, pAcF): ~17 fold | Yield of purified ELP(30TAG)-GFP (ELP(30TAG)-GFP; nsAA pAcF, GRO): 52.6 ± 6.3 mg/L

B3: pAcFRS.2.t1: pAcFRS variant L65V, A167D, R257G, SEQ ID NO: 8 (protein)
chain: B2 chain with L65V
selectivity toward pAcF over pAzF (GFP(3TAG); GFP(3TAG) expression, chromosomally integrated AARS): increase in selectivity | Yield of purified ELP(30TAG)-GFP (ELP(30TAG)-GFP; nsAA 4CF3F, GRO): 53 ± 5.4 mg/L | Yield of purified ELP(30TAG)-GFP (ELP(30TAG)-GFP; nsAA BuY, GRO): 64.5 ± 9.7 mg/L

B4: pAcFRS: progenitor M. jannaschii based p-acetyl-L-phenylalanine AARS, SEQ ID NO:1 (Young, et al., 2010) (protein, listed as Methanocaldococcus jannaschii)
chain: B2 chain with D167A, G257R
decrease in the yield of GFP(3TAG) by genomic integration of the OTS (GFP(3TAG); RF1 deficient GRO, chromosomal versus plasmid OTS): ~20 fold | Yield of purified ELP(30TAG)-GFP (ELP(30TAG)-GFP; nsAA pAcF, GRO): 10.5 ± 5.5 mg/L | Yield of purified ELP(30TAG)-GFP (ELP(30TAG)-GFP; nsAA pAcF, Non-recoded E. coli): 3.04 ± 1.4 mg/L

B5: pAzFRS.2.t1: pAcFRS variant E107T, F108Y, Q109M, R257G, SEQ ID NO: 14 (protein)
chain: B2 chain with E107T, F108Y, Q109M, D167A
higher GFP(3TAG) production compared with the progenitor enzyme (GFP(3TAG); [1]): ~25 fold | Yield of purified ELP(30TAG)-GFP (ELP(30TAG)-GFP; nsAA 4ClF, GRO): 48.2 ± 11.2 mg/L | Yield of purified ELP(30TAG)-GFP (ELP(30TAG)-GFP; nsAA pAcF, GRO): 39.05 ± 3.4 mg/L | Yield of purified ELP(30TAG)-GFP (ELP(30TAG)-GFP; nsAA pAzF, GRO): 41.9 ± 6^ mg/L
